Kd, koff and kon data for one molecule are collected here from US20230073067A1 (INSTITUTE OF MICROBIOLOGY CHINESE ACADEMY OF SCIENCE, published 2023).

This assay has as its target 2019-nCoV RBD protein with C-terminal hexa-His tag (2019-nCoV (SARS-CoV-2), UniProt P0DTC2 319-541). Kind of assay: SPR, Biacore 8K, antibody captured on protein A chip, RBD as analyte. In general terms: In SPR one partner is held on a chip, and binding of the other changes the refractive index at the surface.

Method: Surface plasmon resonance analysis was performed using Biacore 8K (Biacore Inc.).
Binding kinetic constants were calculated using BIAevaluation software 8K (Biacore, inc.) software.

B1: GH12 antibody (antibody, human IgG1, lambda, V domains shown)
VH: EVQLVESGGGLVQPGGSLRLSCAASGFTFSSYWMSWVRQAPGKGLEWVANIKQDGSEKYYVDSVKGRFTISRDNAKNSLYLQMNSLRAEDTAVYYCTRAGWVRGAFDIWGQGTMVTVSS
VL: NFMLTQPHSVSESPGKTVTISCTGSSGSIASNYVQWYQQRPGSAPTTVIYEDNQRPSGVPDRFSGSIDSSSNSASLTISGLKTEDEADYYCQSYDSSNLWVFGGGTKLTVLG
notes: also called human antibody GH12
On to B1, for which binding was put at a Kd of 5.87 nM, the dissociation rate constant (koff) is 0.0173 s⁻¹ and the kon is 2.95e+06 M⁻¹ s⁻¹.

What is called Kd is the free concentration of one partner at which half of the binding sites on the other are occupied at equilibrium, for simple one-to-one binding. A high value points to weaker binding. By koff is commonly meant a measure of how fast the partners let go of each other. A higher koff goes with a short-lived complex. For orientation: kon means the second-order rate constant of association.
